This assay has as its system syngeneic mouse model of neuroblastoma. The experiment in a line: Vaccination with histone H2A-transfected NXS2 cells, syngeneic mouse model of neuroblastoma. It is filed as in vivo. Particulars: subcutaneous immunization, histone H2A transient transfection; challenge with wild type tumor cells. From the text: The present invention also contemplates use of the H2A-derived peptides to facilitate gene delivery in vivo. This embodiment is based on the successful subcutaneous immunization in a novel syngeneic mouse model of neuroblastoma with a single chain IL-12 fusion protein that was mediated by histone H2A transient transfection.
For this approach with intact histone H2A and also extendable to the peptides of this invention, mouse IL-2 and scIL-12 were cloned into the expression vector pcDNA3.1 (Invitrogen, Carlsbad, Calif.) as previously described (Lode et al., Proc. Natl. Acad. Sci., USA, 95:2475-2480, 1998). […] Supercoiled DNA was quantitated on 0.9% agarose gels using Stratagene's Eagle Eye. […] production was quantified on a 24 hour basis in cell culture supernatants using an ELISA assay kit (Biosource, Camarillo, Calif.) and compared with standard preparations of these cytokines. […]
NXS2 cells were tested routinely for the absence of mycoplasma contamination (Gen Probe® Mycoplasma Rapid Detection System, Fisher Scientific, Pittsburgh, Pa.). […] Cell viability was determined using trypan blue staining (Life Technologies, Gaithersburg, Md.), and the number of viable cells per experimental condition were determined. […]

B1: IL-2: mouse IL-2 expressed from pcDNA3.1 in transfected NXS2 cells (protein, UniProt P04351 21-169, looked up)
Interleukin-2: APTSSSTSSSTAEAQQQQQQQQQQQQHLEQLLMDLQELLSRMENYRNLKLPRMLTFKFYLPKQATELKDLQCLEDELGPLRHVLDLTQSKSFQLEDAENFISNIRVTVVKLKGSDNTFECQFDDESATVVDFLRRWIAFCQSIISTSPQ
Consider B1, for which the tumor immunity entry is listed as “no tumor immunity”.

(Values after patent US20040102606A1, “Histone H2A -derived peptides useful in gene delivery” (priority 2003, published 2004).)
